The target of the test is soluble recombinant FcγRIIIB (sFcγRIIIB) (UniProt O75015). Put plainly: SPR, comparison of SAP and CRP affinities.

We go through one substance from patent US20090202520A1.

Sequence of soluble recombinant FcγRIIIB (sFcγRIIIB) (O75015 17-200): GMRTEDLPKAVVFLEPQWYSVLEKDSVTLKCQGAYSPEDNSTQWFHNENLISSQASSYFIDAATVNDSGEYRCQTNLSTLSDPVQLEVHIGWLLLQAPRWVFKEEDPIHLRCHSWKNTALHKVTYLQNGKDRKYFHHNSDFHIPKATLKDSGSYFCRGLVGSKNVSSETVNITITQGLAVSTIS

As to “serum amyloid P (SAP) (from UniProt P02743 20-223) (ligand; other documents disagree on this pair)”, the fold affinity of SAP over CRP for the same receptor turned out to be 1000 fold.
